The assay concerns the target T1, GST-GP73 (aa36-401) (human, UniProt Q8NBJ4 36-401).
T1 construct: also called recombinant GST-GP73; GST-fused GP73; source: E. coli BL21, purified (glutathione Sepharose 4B)
T1 sequence (looked up): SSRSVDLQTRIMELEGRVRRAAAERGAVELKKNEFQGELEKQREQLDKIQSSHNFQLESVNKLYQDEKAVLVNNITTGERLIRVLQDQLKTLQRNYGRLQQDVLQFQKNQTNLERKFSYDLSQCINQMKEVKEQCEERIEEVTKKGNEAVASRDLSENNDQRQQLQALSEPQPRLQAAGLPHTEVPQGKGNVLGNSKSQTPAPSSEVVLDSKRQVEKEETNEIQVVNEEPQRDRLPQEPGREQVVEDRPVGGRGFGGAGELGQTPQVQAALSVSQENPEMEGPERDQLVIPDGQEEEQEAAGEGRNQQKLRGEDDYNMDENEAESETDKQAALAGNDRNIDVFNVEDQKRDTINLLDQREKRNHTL
The experiment in a line: pull-down; purified MBP, MBP-M11 or MBP-T6CC (20 μg) with 10 μg GST or 20 μg GST-GP73 overnight at 4°C; WB (S4A Fig). The conditions noted are these: both partners purified.

B1: MBP-M11 (domain or fragment, UniProt Q7Z434 1-90, looked up)
chain: MPFAEDKTYKYICRNFSNFCNVDVVEILPYLPCLTARDQDRLRATCTLSGNRDTLWHLFNTLQRRPGWVEYFIAALRGCELVDLADEVASISASTSLGMGPCHGPEENEYKSEGTFGIHVAENPSIQLLEGNPGPPADPDGGPRPQADRKFQEREVPCHRPSPGALWLQVAVTGVLVVTLLVVLYRRRLH
notes: also called MBP-fused M11; source: E. coli BL21, purified (amylose resin)
B1: the binding result is recorded as “binds”.

These data come from paper PMC5398727, “GP73 represses host innate immune response to promote virus replication by facilitating MAVS and TRAF6 degradation” (PLoS Pathogens, 2017).
